Tests used:
[1] = system: Neutrophil and reticulocyte count; test: Non-human primate hematology: neutrophil and reticulocyte count, hemoglobin, hematocrit, red blood cells; type: in vivo, cynomolgus monkey; settings: Table 39
Protocol: LNP formulations, shown in Table 31 (above), were administered to non-human primates (NHP) (cynomolgus monkey) (n=2) as intravenous injection (IV). The NHP were administered a single modified mRNA IV dose of 0.5 mg/kg, 0.05 mg/kg or 0.005 mg/kg of G-CSF or EPO in a dose volume of 0.5 mL/kg. The NHPs were bled before dosing with the modified mRNA LNP formulations to determine protein expression in the serum and a baseline complete blood count. After administration with the G-CSF modified mRNA formulation the NHP were bled at 8, 24, 48 and 72 hours to determined protein expression. After administration with the EPO modified mRNA formulation the NHP were bled at 8, 24, 48, 72 hours and 7 days to determined protein expression.
Samples collected from the NHPs after they were administered with G-CSF or EPO modified mRNA formulations were analyzed by ELISA to determine protein expression. Neutrophil and reticulocyte count was also determined pre-dose, 24 hours, 3 days, 7 days, 14 days and 18 days after administration of the modified G-CSF or EPO formulation.

[2] = Non-human primate serum chemistry: alanine transaminase (ALT), aspartate transaminase (AST); type: in vivo, cynomolgus monkey; settings: for Aspartate Transaminase (AST): Female NHP; for Alanine Transaminase (ALT): Male NHP
[3] = Human G-CSF modified RNA lipoplex I.M., S.C., I.V., serum human G-CSF ELISA 6 hours; type: in vivo, C57/BL6 mice; settings: lipoplexed 30% RNAIMAX
Protocol: 6 hours after administration of a formulation, serum was collected from each mouse to measure the amount of human G-CSF protein in the mouse serum by human G-CSF ELISA and the results are shown in Table 54.

neutrophil count = test: Intravenous administration of lipoplexed G-CSF mRNA, neutrophil count; type: in vivo; settings: mice IV, 50 ug RNA in 10% lipoplex at days 0, 2 and 4; day 5
Protocol: Neutrophils were measured at days 1, 5 and 8. Controls included non-specific mammalian RNA or the formulation buffer alone (F.Buffer). The mice were bled at days 1, 5 and 8 to determine the effect of mRNA-encoded human G-CSF to increase neutrophil count. The dosing regimen is shown in Table 64 as are the resulting neutrophil counts (thousands/uL; K/uL).

IFN-alpha = test: Cytokine study PBMC, IFN-alpha production ELISA; type: cell-based; settings: human PBMC, Lipofectamine 2000
Protocol: The plates were then incubated at 37 C.
Each condition was done in duplicate
Shown in Tables 69 and 70 are the average from 2 separate PBMC donors of the G-CSF and IFN-alpha production over time as measured by specific ELISA.

Protocol for HEK293 cells: Human embryonic kidney epithelial (HEK293) cells were seeded on 96-well plates at a density of 30,000 cells per well in 100 ul cell culture medium. 250 ng of modified G-CSF mRNA (SEQ ID NO: 6; polyA tail of approximately 160 nucleotides not shown in sequence; 5′cap, Cap1) formulated with RNAiMAX™ (Invitrogen, Carlsbad, Calif.) was added to a well. The G-CSF was completely modified with 5mC and pseudoU (100% modification), not modified with 5mC and pseudoU (0% modification) or was partially modified with 5mC and pseudoU so the mRNA would contain 75% modification, 50% modification or 25% modification. Control samples (AH 5/2, mCherry (SEQ ID NO: 7; polyA tail of approximately 160 nucleotides not shown in sequence; 5′cap, Cap1; fully modified 5mC and pseudoU) and untreated) were also analyzed. […] The supernatants were harvested after 16 hours and the secreted G-CSF protein was analyzed by ELISA.

B1: G-CSF: human G-CSF mRNA, SEQ ID NO: 6, polyA about 160 nt, Cap1, fully modified with 5-methylcytosine and pseudouridine (nucleic acid, listed as Homo sapiens)
chain: GGGAAAUAAGAGAGAAAAGAAGAGUAAGAAGAAAUAUAAGAGCCACCAUGGCCGGUCCCGCGACCCAAAGCCCCAUGAAACUUAUGGCCCUGCAGUUGCUGCUUUGGCACUCGGCCCUCUGGACAGUCCAAGAAGCGACUCCUCUCGGACCUGCCUCAUCGUUGCCGCAGUCAUUCCUUUUGAAGUGUCUGGAGCAGGUGCGAAAGAUUCAGGGCGAUGGAGCCGCACUCCAAGAGAAGCUCUGCGCGACAUACAAACUUUGCCAUCCCGAGGAGCUCGUACUGCUCGGGCACAGCUUGGGGAUUCCCUGGGCUCCUCUCUCGUCCUGUCCGUCGCAGGCUUUGCAGUUGGCAGGGUGCCUUUCCCAGCUCCACUCCGGUUUGUUCUUGUAUCAGGGACUGCUGCAAGCCCUUGAGGGAAUCUCGCCAGAAUUGGGCCCGACGCUGGACACGUUGCAGCUCGACGUGGCGGAUUUCGCAACAACCAUCUGGCAGCAGAUGGAGGAACUGGGGAUGGCACCCGCGCUGCAGCCCACGCAGGGGGCAAUGCCGGCCUUUGCGUCCGCGUUUCAGCGCAGGGCGGGUGGAGUCCUCGUAGCGAGCCACCUUCAAUCAUUUUUGGAAGUCUCGUACCGGGUGCUGAGACAUCUUGCGCAGCCGUGAAGCGCUGCCUUCUGCGGGGCUUGCCUUCUGGCCAUGCCCUUCUUCUCUCCCUUGCACCUGUACCUCUUGGUCUUUGAAUAAAGCCUGAGUAGGAAG
modifications: Cap1; polyA; 5-methylcytosine, pseudouridine
Female NHP Neutrophils ([1]; 0.005 mg/kg IV LNP, 7 days): 0.066 10^12/L | Female NHP Neutrophils ([1]; 0.005 mg/kg IV LNP, Pre-dose): 0.06 10^12/L | Female NHP Neutrophils ([1]; 0.05 mg/kg IV LNP, 14/18 days): 0.06 10^12/L | Female NHP Neutrophils ([1]; 0.05 mg/kg IV LNP, 24 hours): 0.046 10^12/L | Female NHP Neutrophils ([1]; 0.05 mg/kg IV LNP, 3 days): 0.061 10^12/L | Female NHP Neutrophils ([1]; 0.05 mg/kg IV LNP, 7 days): 0.094 10^12/L | Female NHP Neutrophils ([1]; 0.05 mg/kg IV LNP, Pre-dose): 0.049 10^12/L | Female NHP Neutrophils ([1]; 0.5 mg/kg IV LNP, 14/18 days): 0.071 10^12/L | Female NHP Neutrophils ([1]; 0.5 mg/kg IV LNP, 24 hours): 0.046 10^12/L | Female NHP Neutrophils ([1]; 0.5 mg/kg IV LNP, 3 days): 0.017 10^12/L | Female NHP Neutrophils ([1]; 0.5 mg/kg IV LNP, 7 days): 0.021 10^12/L | Female NHP Neutrophils ([1]; 0.5 mg/kg IV LNP, Pre-dose): 0.055 10^12/L | Aspartate Transaminase (AST) ([2]; 0.005 mg/kg, 2 days): 34 U/L | Aspartate Transaminase (AST) ([2]; 0.005 mg/kg, 4 days): 36 U/L | Aspartate Transaminase (AST) ([2]; 0.005 mg/kg, 7 days): 31 U/L | Aspartate Transaminase (AST) ([2]; 0.005 mg/kg, 14 days): 20 U/L | Aspartate Transaminase (AST) ([2]; 0.005 mg/kg, Pre-dose): 54 U/L | Aspartate Transaminase (AST) ([2]; 0.05 mg/kg, 1 days): 34 U/L | Aspartate Transaminase (AST) ([2]; 0.05 mg/kg, 4 days): 42 U/L | Aspartate Transaminase (AST) ([2]; 0.05 mg/kg, 7 days): 52 U/L | Aspartate Transaminase (AST) ([2]; 0.05 mg/kg, 14 days): 20 U/L | Aspartate Transaminase (AST) ([2]; 0.05 mg/kg, Pre-dose): 33 U/L | Aspartate Transaminase (AST) ([2]; 0.5 mg/kg, 2 days): 794 U/L | Aspartate Transaminase (AST) ([2]; 0.5 mg/kg, 4 days): 63 U/L | Aspartate Transaminase (AST) ([2]; 0.5 mg/kg, 7 days): 68 U/L | Aspartate Transaminase (AST) ([2]; 0.5 mg/kg, 14 days): 67 U/L | Aspartate Transaminase (AST) ([2]; 0.5 mg/kg, Pre-dose): 47 U/L | Alanine Transaminase (ALT) ([2]; 0.005 mg/kg, 2 days): 39 U/L | Alanine Transaminase (ALT) ([2]; 0.005 mg/kg, 4 days): 48 U/L | Alanine Transaminase (ALT) ([2]; 0.005 mg/kg, 7 days): 29 U/L | Alanine Transaminase (ALT) ([2]; 0.005 mg/kg, 14 days): 44 U/L | Alanine Transaminase (ALT) ([2]; 0.005 mg/kg, Pre-dose): 43 U/L | Alanine Transaminase (ALT) ([2]; 0.05 mg/kg, 2 days): 82 U/L | Alanine Transaminase (ALT) ([2]; 0.05 mg/kg, 4 days): 88 U/L | Alanine Transaminase (ALT) ([2]; 0.05 mg/kg, 7 days): 73 U/L | Alanine Transaminase (ALT) ([2]; 0.05 mg/kg, 14 days): 50 U/L | Alanine Transaminase (ALT) ([2]; 0.05 mg/kg, Pre-dose): 58 U/L | Alanine Transaminase (ALT) ([2]; 0.5 mg/kg, 2 days): 63 U/L | Alanine Transaminase (ALT) ([2]; 0.5 mg/kg, 4 days): 70 U/L | Alanine Transaminase (ALT) ([2]; 0.5 mg/kg, 7 days): 41 U/L | Alanine Transaminase (ALT) ([2]; 0.5 mg/kg, 14 days): 43 U/L | Alanine Transaminase (ALT) ([2]; 0.5 mg/kg, Pre-dose): 29 U/L | Human G-CSF in Serum ([3]; 100 μg (Luc-unsp 150 μg), I. V.): 31.0 pg/mL | Human G-CSF in Serum ([3]; 100 μg, S. C.): 3.9 pg/mL | increase in neutrophil count above control (neutrophil count): four to five fold increase | innate immune recognition, cytokines (IFN-alpha) (IFN-alpha): induced IFN-alpha, TNF-alpha and IP10 | half-life of mRNA (HEK293 cells): 8 to 10 h
